Data published in paper PMC2528183.
One block for each molecule: values may come before it.

Tests used:
[1] = molecular target: Thermus thermophilus RecR (ttRecR), wild type (Thermus thermophilus); assay: SAXS
[2] = molecular target: Thermus thermophilus RecR (ttRecR), wild type (Thermus thermophilus); assay: SEC
[3] = molecular target: Thermus thermophilus RecR (ttRecR), wild type (Thermus thermophilus); assay: SAXS; remark: listed apart in the source
[4] = molecular target: Thermus thermophilus RecF (ttRecF) (Thermus thermophilus); assay: SAXS
[5] = molecular target: T1, ttRecF (Thermus thermophilus, UniProt Q5SLM9 1-343); assay: EMSA
T1 sequence: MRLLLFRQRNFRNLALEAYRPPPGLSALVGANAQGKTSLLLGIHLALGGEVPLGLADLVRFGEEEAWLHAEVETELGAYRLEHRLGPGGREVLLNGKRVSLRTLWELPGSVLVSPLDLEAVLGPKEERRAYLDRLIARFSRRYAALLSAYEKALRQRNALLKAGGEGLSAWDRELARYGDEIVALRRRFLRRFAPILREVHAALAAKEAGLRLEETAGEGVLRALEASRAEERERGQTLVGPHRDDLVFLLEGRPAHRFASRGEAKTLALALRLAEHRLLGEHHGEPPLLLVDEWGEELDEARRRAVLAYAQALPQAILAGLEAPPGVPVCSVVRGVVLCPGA

[6] = molecular target: T2, ttRecF;ttRecR (Thermus thermophilus;Thermus …, UniProt Q5SLM9;Q5SHY0 1-343;1-194, |); assay: EMSA
T2 sequence 1: T1 sequence
T2 sequence 2: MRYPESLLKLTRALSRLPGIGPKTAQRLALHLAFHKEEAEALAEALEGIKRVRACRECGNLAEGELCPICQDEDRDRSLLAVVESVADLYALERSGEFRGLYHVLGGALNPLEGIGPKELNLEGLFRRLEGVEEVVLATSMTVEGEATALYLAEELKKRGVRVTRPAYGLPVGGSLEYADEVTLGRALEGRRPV

[7] = molecular target: T3, ttRecR (Thermus thermophilus, UniProt Q5SHY0 1-194); assay: EMSA
T3 sequence: T2 sequence 2

stoichiometry N [1]: 4
stoichiometry N [2]: 2
stoichiometry N [3]: 2
N, ttRecF chains in the complex [4]: 2
N, ttRecR chains in the complex [4]: 4
Molecule: Thermus thermophilus RecR (ttRecR), wild type (natural protein)

B1: 70 bp dsDNA (dsDNA)
DNA 1: GCGATCCTTATTAAAACGGCAACTCCTCCTCCGGCGGAAAGTCTTCCAAGCCTTCGTCAATGTCCACCCC
DNA 2: GGGGTGGACATTGACGAAGGCTTGGAAGACTTTCCGCCGGAGGAGGAGTTGCCGTTTTAATAAGGATCGC
binding result [5]: binds
binding result [6]: binds
binding result [7]: no binding
